Test results: the nanobody polyreactivity screen of Harvey et al. (2022)

Assay: yeast display, Sf9 membrane polyspecificity reagent, FACS + sequencing; frameworks hold sequencing errors
Summary of the method: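 A synthetic nanobody library was expressed on Saccharomyces cerevisiae BJ5465 by galactose induction for 36–48 hours. The library was stained for 1 hour at 4 °C with 10% biotinylated, detergent-solubilized Sf9 membrane reagent and enriched with streptavidin microbeads before FACS. Low and high (top ~1%) gates were set on anti-HA fluorescence for expression and streptavidin fluorescence for reagent binding, and each polyreactivity label reflects the gate of origin.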

Sequence: QVQLVESGGGLVQAGGSLRLSCAASGSIYYSYAMGWYRQAPGKERELVARITKRGGRTYYADSVKGRFTISRDNAKNTVYLQMNSLKPEDTAVYYCAATTGHRTYRYYYWGQGTQVTVSS
- polyreactivity (PSR sort gate): high polyreactivity

Sequence: QVQLVESGGGLVQAGGSLRLSCAASGFTFNYYAMGWYRQAPGKERELVAAIDSGGNTYYADSVKGRFTISRDNAKNTVYLQMNRLKPEDTAVYYCAAYRDYQYDYWGQGTQVTVSS
- polyreactivity (PSR sort gate): low polyreactivity

Sequence: QVHLVESGGALVQAGGSLRLSCAASGSTFGGYAMGWYRPAPWKERELVAAITRSGGTTYYADSVKGRFTISRDNAKNTVYLQMNSLKPEDTAVYYCAAQGRRRPHQDAPYDYWGQGTQVTVSS
- polyreactivity (PSR sort gate): high polyreactivity

Sequence: QVLLVESGGGLVQAGGSLRLSCAASGSTFPGNAMGWYRQAPGKERELVARINDGADTNYADSVKGRFTISRDNAKNTVNLQMNSLKPEDTAVYYCATPYYDGRTHFDSWGQGTQVTVSS
- polyreactivity (PSR sort gate): low polyreactivity

Sequence: QVQLVESAGGLVQEGGSLRISCAASGRIFFYYSMGWYRQAPGKERELVAAISQSGGSTYYADSVKGRFTISRDNAKNTVYLQMNSLKPEDTAVYYCNAADPYYDTSAVAGDYWGHGTQVTVSS
- polyreactivity (PSR sort gate): low polyreactivity

Sequence: QVQLEESRGGLVQAGGSHRLSCAAYGSIFRSYAMGWYRQAPGKERDLVAAISSRSGSTYYADSVKGRFTISRDNAKNTVYLQMNSLKPEDTAVYYCAAQHRHSFGYWGQGTQVTVSS
- polyreactivity (PSR sort gate): high polyreactivity

Sequence: QVQLEESGGGLVQAGGSLRLSCAASGFIFDSYAMGWYRQAPGKERELVAAISWSGGRTYYADSVKGRFTISRDNAKNTVYLQMNSLKPEDTAVYYCNVLVHSLSGRKYDYWGQGTQVTVSS
- polyreactivity (PSR sort gate): high polyreactivity

Sequence: QVQLVESGGGLVQAGGSLRLSCAASGRIFSSNAMGWYRQAPGKERELVAAITSGGSTYADSVKGRFTISRDNAKNTVYLQMNSLKPEDTAVYYCAKDGPGGGTRIYDYWGHGTQVTVSS
- polyreactivity (PSR sort gate): high polyreactivity

Sequence: QVQLIESGGGLVQAGGSLRLSCAASGSTGIYAMGWYRQAPGKERELVAAITRRAGSTYYADSVKGRFTISRDNAKNTVYLQMNSLKPEDTAVYYCAAKGLWWYGTYVSYEYWGKGTQVTVSS
- polyreactivity (PSR sort gate): low polyreactivity

Sequence: QGQLEESGGGLVQAGCSLRRSCAASGNIFLIYAMGWSRQAPGKEGELVAAISFSDDTTDYADSVKGRFTSSRDNAKNTAYIQMNSLKPEDTAVYYCAAELYYDVANTQYDYWGQGTQVTVSS
- polyreactivity (PSR sort gate): high polyreactivity

Sequence: QVQLVESGGGLVQAGGSLRLSCADSGRTFKFNAMGWYRQAPGKERELVVGITWTGSTTSYADSVKGRFTISRDNAKNTVYLQMNSLKPEDTAVYYCAADKIRFWYHGFYYRGQGTQVTVSS
- polyreactivity (PSR sort gate): low polyreactivity

Sequence: QVQLVESGGGLVQAGGSLRLSCAASGSTFWSYTMGWYRQAPGKERELVAAISRSGGSTYYADSVKGRFTISRDNAKNTVYLQMNSLKPEDTAVYYCAADDRYGSRYYYWGQGTQVTVSS
- polyreactivity (PSR sort gate): high polyreactivity

Sequence: QVQLVESGGGLVQAGGSLRLSCAASGSILGYYVMGWYRQAPGKERELVAAISWSSGSTYYADSVKGRFTISRDNAKNTVYLQMNSLKPEDTAVYYCNAGGVYDEFNYWGQGTQVTVSS
- polyreactivity (PSR sort gate): low polyreactivity

Sequence: QVQLVESGGGLVQAGGSLRLSCAASGSIFAKNAMGWYRQAPGKERELVAAISSSGGRTYYADSVKGRFTISRDNAKNTVYLQMNSLKPEDTAVYYCAADLRYIYWSYYYWGQGTQVTVSS
- polyreactivity (PSR sort gate): low polyreactivity

Sequence: QVQLVESGGGLDQAGGSLRLSCAAYGSIFYGYAMGWYRTAPGKERELVAAITSGGSTYYADSVKGRFTISRDNAKNTVYLQMNSLKPEDTAVYYCAATFCTWYSWYDYWGQGTQVTVSS
- polyreactivity (PSR sort gate): high polyreactivity

Sequence: QVQLVESGGVLVQAGGSLRLSCAASGSTFVYNAMGWYRQAPGKESEFVAAISGSGGSTYYADSVKGRFTISRDIAKNTVYLQMNSLKPDDTAVYYCATAGRYGRYRTYPYRSKYDYWGQGTQVTVSS
- polyreactivity (PSR sort gate): high polyreactivity

Sequence: QVQLVESGGGLVQAGGRLRLSCAASGITISGNAMGWYRQAPGKERELDAAISGRGGSTYYADSVKGRFTISRDNAKNTVYLQMNSLIPEDTAVFYCAARVPSPYVATYYYWGQGSQVTVSS
- polyreactivity (PSR sort gate): high polyreactivity

Sequence: QVQLVESGGGLVQAGGSLRLSCAASGSIFRSYAMGWYRQAPGKERQLVARISKRGGSTYYADSVKGRFTISRENAKNTVYLQMNSLKPEDSAVYYCNASYFRYRYNRYVYWGQGTQVTVSS
- polyreactivity (PSR sort gate): high polyreactivity

Sequence: QVQLVESGGGLVHAGGSLRLSCAASGSTFLSYAMGWYRQAPGKEREFVAAISWSDVNTYYADSVKGRFTISRDNAKNTVYLQMISLKPEDTAVYYCAAYYPSHDYSGFWSDTYEYWGQGTQVTVSS
- polyreactivity (PSR sort gate): low polyreactivity

Sequence: QVQLVESGGGLVQAGGSLRLSCAASGFIFVYNAMGWYRQAPGKERELVAAIDYGGGSTTYADSVKGRFTISRDNAKNTVYLQMNSLKPEDTAVYYCAAYYRYLDDIYEYEYWGQGTQVTVSS
- polyreactivity (PSR sort gate): low polyreactivity

Sequence: QVQLVESGGGLVQAGGSLRLSCAASGITSCFSAMGWYRPAPGQERELVAGISSGGSTNYADSVKGRFTISRDNAKNTVYLQMTSLKPEDTAVYYCPATFYNRYETRYYYWGQGTQVTVSS
- polyreactivity (PSR sort gate): high polyreactivity

Sequence: QVQLVESGGRLVQPGGSLRLSCAASGRTFVLNAIGWYRQAPGKEREFVAAISWGGVRTDYADSVKGRFTISRDNAKNTVYLQMNSLKPEDTAVYYCATSGSRYRRYDYWGQGTQVTVSS
- polyreactivity (PSR sort gate): high polyreactivity

Sequence: QVQLVESAGGLDQAGGSLRLICAASGGTFSFYAMGWYRHAPGKEREFVAAITASDGSTYADSVKGRFTISRDNAKNTVYLQMNSLKPEDTAVYYCAVAGGEFSSYGYWGQGTQVTVSS
- polyreactivity (PSR sort gate): low polyreactivity

Sequence: QVQLVESGGGLVQAGGSLRLSCAASGRIFGHNAMGWYRQAPGKERELVATISSGVRTNYADSVKGRFTISRDNAKNTVYLQMNSLKPEDTAVYYCATKTYQFGYSSYYYWGQGTQVTVSS
- polyreactivity (PSR sort gate): high polyreactivity

Sequence: QVQLVESGGGLLQAGGSLRLSCAASGLTFSKNAMGWYRQATGKERELVATISYSSSRTNYADSVKGRFTISRDNAMNTVYLQMNFLKPEDTAVYYCAARVYKGWPTHYDYWGQGTQVTVSS
- polyreactivity (PSR sort gate): high polyreactivity

Sequence: QVQLVESGGGLVQAGGSLRLSCAASGLTFYFYAMGWYRQAPGKERELVAAINSGGSTNYADSVKGRFTISRDNAKNTVYLQMNSLKPEDTAVYYCNADYYFTSYEYEYWGQGTQVTVSS
- polyreactivity (PSR sort gate): low polyreactivity

Sequence: QVQLVESGGGLVQAGGSLRLSCAASGLIFTSYAMGWYRQAPGKERELVAAISYSGGTTIYADSVKGRFTISRDYAKNTVYLQMNSVKPEDTAVYYCAADSLSTTHDTLGYDRDDYWGQGSQVTVSS
- polyreactivity (PSR sort gate): low polyreactivity

Sequence: QVQLVESGGVLVQAGGRLRISCAASGSTFVRNAMGWYRQAPGKEMELVAAISFSGGSTYYADSVKGRFTISRDTAKNTVYLQMNSLKPEDTAVYYCAKKTRYRSRGMNYWGQATQVTVSS
- polyreactivity (PSR sort gate): high polyreactivity

Sequence: QVQLVESGGGLVQAGGSLRISCAASGRTFRHYAMGWYIQAPGKEREFVAAISRSGGSTRYADSVKGRFTISRDNAKNSVYLQMNSLKPEDTAVYYCAATSRSYNDYDYWGQGTQVTVSS
- polyreactivity (PSR sort gate): high polyreactivity

Sequence: QVQLVESGGGLVQAGGSLRLSCAASGSTFNYNAMGWYRQAPGKERELVAAISSGASTNYADSVKGRFTISRDNAKNTVYLQMNSLKPEDTAVYYCAARSRTPGWYSTISRKMYWGQGTQVTVSS
- polyreactivity (PSR sort gate): high polyreactivity

Sequence: QVQLVESGGGLVQAGGSLSLSCDASGRIFVVKAMGWYRQAPGKERELVAAITRRGGSTYADSVKGRFTISRDNAKNTVYLQMNSLKPEDTAVYYCNAESYYGIFSYKYDYWGQGTQVTVSS
- polyreactivity (PSR sort gate): high polyreactivity

Sequence: QVQLVESGGGLVQAGGSLRLSCSASGYIFLRNAMGWYRQAPGKERALVAAIRRTGGSTYYADSVKGRFTISRDNSKNTVYLQMTSLKPEDTAVYYCDKRSYTGYEYWGQGTQVTVSS
- polyreactivity (PSR sort gate): low polyreactivity

Sequence: QVQLVESGGGLVQAGGSLRLSCAASGFSFGIYAMGWYRQAPGKERELVADITASGGSTYYADSVKGRFTISRDNAKNTVYLQMNSLKPEDTAVYYCAADGWWHNFYPGTGLDYWGQGTQVTVSS
- polyreactivity (PSR sort gate): low polyreactivity

Sequence: QVQLVESGGGLVQAGGSLRLSCAASGINFYAYAMGWYRKAPGKERELVAAITFSAVSTYYADSVKGRFTISRDNAKNSVYLQMNSLKPEDTAVYYCAAEAYKQGVWDYDYWGQGTQVTVSS
- polyreactivity (PSR sort gate): low polyreactivity

Sequence: QVQLVESGGGLVQAGRILRLSCAASGIILGRYAMGWYRQAHGKERELVAAITASGGRTYYADSVKGRFTISRDNAKNTVYLQMNSLKPEDTAVYYCNTVYWGYKSHYDYWGQGTQVTVSS
- polyreactivity (PSR sort gate): high polyreactivity

Sequence: QVQLVESGGGLVQAGGSLRLSCAASGFTFNANAMGWYRQAPGKERELVSVITRSGGRTYYADSVKGGFTISRDTAKNTVYLQMNSLKPEDSAVYYCATEGPSRVYQGTDSASDYWGQGTQVTVSS
- polyreactivity (PSR sort gate): high polyreactivity

Sequence: QVQLVESGGGLVQAGGSLRLSCAASGSILVYNAMGWYRQAPGKERELVAAISNTGRTYYAVSVKGRFTISRDIAKNTVYVQMNSLKPEDTAVYYCAAARTSTGSYRYEYWGQGTQGTVSS
- polyreactivity (PSR sort gate): high polyreactivity

Sequence: QFQLVESGGGLVQAGGSLRLSCAASGFTIYLYTMGWYRQAPGKERELVATISWSGASTYYADSVKGRFTISRDNAKNTVYLQMNSLKPEDTAVYYCATRYRYRYWGQGTQVTVSS
- polyreactivity (PSR sort gate): high polyreactivity

Sequence: QVQLQESVGSLVQAGGSLRLSCAASGSISILQYMGWYRQAHGKELELVAGINWGATTYYADSVKGRLTTSRDYAKKTVYLQMNSLKPEDTAVYYCAVPTFYSYPVLYWGQGTQVTVSS
- polyreactivity (PSR sort gate): low polyreactivity

Sequence: QVHLVESGGCLVQAGCSLRLSCAASGRTFGWNVMGWYRQAPGTERELVAAISGSGGSTYYADSVKGRFTISRDNAKNTVYLQMNSLKPEDTAVYYCAALYGPGREYDYWGQGTQVTVSS
- polyreactivity (PSR sort gate): low polyreactivity

Sequence: QVQLVESGGGLVQAGGSLRLSCAATGFTSYLYTMGGYRQAAGKERELVAAISNSGGNTYYADSVKGRFTISRDNANNTVYLQMNSLKPEDTAVYYCAARLFAAKYRYGYWGQGTQVTVSS
- polyreactivity (PSR sort gate): high polyreactivity

Sequence: QVQLVESGGGLVQAGGSLRLSCAASGFTFYKNTMGWYRQAPAKARELVAAISSSGSSTYYADSVKGRFTISRDYAKNTVYLQMNSLKPEDTAVYYCAAGRFAYHDDYWGQGTQVTVSS
- polyreactivity (PSR sort gate): high polyreactivity

Sequence: QVQLVESGGGLFQAGGSLRLSCAASGSILTHYAMGWYRQAPGKERELVAGNTSGGTTNYADSVKGRFTISRDNAKNSVYLQMNSLKPEDTAVYYCNADVWICQRFETGYDFDYWGQGTQVTVSS
- polyreactivity (PSR sort gate): low polyreactivity
